The test deals with T1, CRB1-FLAG p.C480R (human, UniProt P82279 26-1406, p.C480R).
T1 construct: Crumbs homolog 1, canonical form, human, cDNA NM_202153 as printed, with a patient missense mutation; Made by site-directed mutagenesis of m1; also called CRB1 p.C480R; CRB1-FLAG MT; source: HEK293T, transfected, in lysate; not shown: Strep-Strep-FLAG, N-terminal, kept
T1 sequence (looked up): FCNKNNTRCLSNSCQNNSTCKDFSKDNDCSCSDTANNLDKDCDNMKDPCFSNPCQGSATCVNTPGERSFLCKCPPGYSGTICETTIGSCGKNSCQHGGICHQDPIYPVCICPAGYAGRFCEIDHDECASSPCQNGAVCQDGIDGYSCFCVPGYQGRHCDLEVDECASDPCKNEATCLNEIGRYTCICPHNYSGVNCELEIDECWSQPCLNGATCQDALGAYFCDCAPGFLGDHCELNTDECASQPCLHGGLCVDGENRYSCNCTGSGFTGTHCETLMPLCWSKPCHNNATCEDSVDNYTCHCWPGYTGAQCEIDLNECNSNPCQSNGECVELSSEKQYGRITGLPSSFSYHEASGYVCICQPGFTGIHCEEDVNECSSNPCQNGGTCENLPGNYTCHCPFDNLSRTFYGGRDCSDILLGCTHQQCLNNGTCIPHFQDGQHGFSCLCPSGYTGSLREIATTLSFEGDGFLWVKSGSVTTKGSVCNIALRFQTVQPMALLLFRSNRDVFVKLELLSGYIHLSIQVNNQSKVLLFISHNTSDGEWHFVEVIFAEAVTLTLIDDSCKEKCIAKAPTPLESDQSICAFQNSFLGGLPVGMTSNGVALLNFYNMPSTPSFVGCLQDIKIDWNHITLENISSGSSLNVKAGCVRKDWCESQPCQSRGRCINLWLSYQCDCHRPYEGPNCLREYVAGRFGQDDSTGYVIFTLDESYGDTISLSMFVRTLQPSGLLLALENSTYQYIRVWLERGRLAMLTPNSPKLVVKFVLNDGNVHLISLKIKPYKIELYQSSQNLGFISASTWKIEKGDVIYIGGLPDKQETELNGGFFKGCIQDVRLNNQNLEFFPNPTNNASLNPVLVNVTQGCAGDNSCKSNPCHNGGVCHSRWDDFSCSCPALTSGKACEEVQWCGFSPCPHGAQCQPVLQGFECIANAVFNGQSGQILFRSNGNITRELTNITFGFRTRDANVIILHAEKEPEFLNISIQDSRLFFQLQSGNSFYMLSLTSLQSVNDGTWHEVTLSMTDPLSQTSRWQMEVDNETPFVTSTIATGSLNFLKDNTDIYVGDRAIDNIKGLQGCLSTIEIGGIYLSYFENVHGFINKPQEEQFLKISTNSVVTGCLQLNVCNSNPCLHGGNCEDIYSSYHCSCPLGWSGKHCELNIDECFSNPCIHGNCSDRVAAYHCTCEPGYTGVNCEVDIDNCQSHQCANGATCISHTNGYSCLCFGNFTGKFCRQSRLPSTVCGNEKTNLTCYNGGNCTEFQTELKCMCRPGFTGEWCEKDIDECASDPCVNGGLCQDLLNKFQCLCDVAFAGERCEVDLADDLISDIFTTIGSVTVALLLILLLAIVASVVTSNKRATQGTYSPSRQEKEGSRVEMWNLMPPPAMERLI
The test can be described thus: co-IP; HEK293T cells co-transfected pairwise with a FLAG and an HA construct, 48 h; lysis in TBS (30 mM Tris-HCl pH 7.4, 150 mM NaCl) with 0.5% Nonidet P40; FLAG-IP on ANTI-FLAG M2 Affinity Gel 60-90 min at 4°C, elution with FLAG peptide; Western blot with HA and FLAG antibodies; for mutants HA/FLAG signal in eluates relative to WT, three biological replicates. As to conditions: partners not purified.

B1: Human canonical CRB2 (Crumbs homolog 2) (natural protein)
chain: not shown
notes: Crumbs homolog 2, human, cDNA NM_173689; Stood as bait (FLAG copy) and as prey (HA copy) in the pairwise co-IP matrix; each copy carries only one of the two tags; The FLAG copy was the bait of the mass spectrometry pull-downs; also called CRB2-FLAG; CRB2-HA; source: HEK293T, transfected, in lysate (co-IP); HEK293T, transfected, FLAG-IP on beads, washed and purified with 0.01% SDS (retina …)
As to B1, the “percent of the interaction capacity relative to CRB1 WT” value was 96%.
